Data on 5 molecules can be found in article PMC12809078, “CtBP1/2 oligomerization promotes G9a-Mediated transcriptional repression” (The Journal of Biological Chemistry, 2025).

Sequences and labels used below:
B1: full-length SUMO-CtBP2 (natural protein)
chain: not shown
notes: Named SUMO-CtBP2 in the pull-downs; also called SUMO-CtBP2-FL; CtBP2-FL; source: E. coli Rosetta 2 (DE3), purified (Ni-NTA); not shown: SUMO, N-terminal, kept

Conditions in all cases: both partners purified
Test [1] addresses T1, His6-MBP-G9a^641-1193 (WT) (human, UniProt Q96KQ7 641-1193).
T1 construct: G9a (EHMT2), human, residues 641-1193 (ANK, Pre-SET and SET domains); also called WT G9a; source: E. coli, purified
T1 sequence (looked up): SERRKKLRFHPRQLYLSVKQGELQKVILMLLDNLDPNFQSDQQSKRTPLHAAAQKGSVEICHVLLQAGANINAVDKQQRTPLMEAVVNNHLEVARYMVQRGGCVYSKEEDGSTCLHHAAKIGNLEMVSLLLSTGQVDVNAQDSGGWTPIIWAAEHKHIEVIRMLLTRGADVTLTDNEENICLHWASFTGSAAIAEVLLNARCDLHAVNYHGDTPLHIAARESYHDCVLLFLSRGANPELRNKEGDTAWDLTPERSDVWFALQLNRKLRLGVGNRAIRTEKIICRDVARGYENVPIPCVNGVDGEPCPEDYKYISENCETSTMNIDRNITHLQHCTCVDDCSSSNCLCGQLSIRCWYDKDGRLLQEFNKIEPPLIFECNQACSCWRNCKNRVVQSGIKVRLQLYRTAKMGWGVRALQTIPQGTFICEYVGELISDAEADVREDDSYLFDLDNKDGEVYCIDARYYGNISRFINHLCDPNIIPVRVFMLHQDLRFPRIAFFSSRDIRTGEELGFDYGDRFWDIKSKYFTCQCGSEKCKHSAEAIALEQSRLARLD
In words: pull-down; MBP pull-down of His6-MBP-G9a(641-1193) WT or Δ885–893 with full-length CtBP2; same procedure as the FLAG pull-down with the respective affinity resin.

The target of the test “full-length SUMO-CtBP2” is B1. The test is described as follows: pull-down; FLAG-tagged G9a (or GLP) fragments immobilised on anti-FLAG resin, incubated with CtBP protein 2 h at 4 °C; 50 mM Tris-HCl pH 8.0, 150 mM NaCl, 2 mM DTT, 0.1% NP-40; eluted with FLAG peptide, SDS-PAGE.
A further test addresses T2, CtBP2 (residues 31–364) (human, UniProt P56545 31-364).
T2 construct: Tag-free by the methods; source: E. coli Rosetta 2 (DE3), purified (Ni-NTA, SUMO protease, SEC; ion exchange and gel filtration for crystals); not shown: His6, N-terminal, cleaved; SUMO, N-terminal, cleaved
The description is as above.

Another test has as its target full-length SUMO-CtBP1 (human, UniProt Q13363 1-440). The test is described as above.

With B1, in test [1], the binding result is on record as “binds”.

B2: SUMO-G9a^881–913-FLAG T891R (domain or fragment, human, UniProt Q96KQ7 881-913, looked up)
chain: NKEGDTAWDLRPERSDVWFALQLNRKLRLGVGN
notes: source: E. coli Rosetta 2 (DE3), purified; not shown: SUMO, N-terminal, kept; FLAG, C-terminal, kept
B2: in the test with full-length SUMO-CtBP2, the binding result is given as “binds”.

B3: SUMO-G9a^881–1210-FLAG (domain or fragment, human, UniProt Q96KQ7 881-1210, looked up)
chain: NKEGDTAWDLTPERSDVWFALQLNRKLRLGVGNRAIRTEKIICRDVARGYENVPIPCVNGVDGEPCPEDYKYISENCETSTMNIDRNITHLQHCTCVDDCSSSNCLCGQLSIRCWYDKDGRLLQEFNKIEPPLIFECNQACSCWRNCKNRVVQSGIKVRLQLYRTAKMGWGVRALQTIPQGTFICEYVGELISDAEADVREDDSYLFDLDNKDGEVYCIDARYYGNISRFINHLCDPNIIPVRVFMLHQDLRFPRIAFFSSRDIRTGEELGFDYGDRFWDIKSKYFTCQCGSEKCKHSAEAIALEQSRLARLDPHPELLPELGSLPPVNT
notes: G9a (EHMT2), human, residues 881-1210; also called CD; G9a C-terminal catalytic domain; not shown: SUMO, N-terminal, kept; FLAG, C-terminal, kept
For B3, the binding result in the test with full-length SUMO-CtBP2 was “binds”.

B4: SUMO-G9a^881–913-FLAG P892E (domain or fragment, human, UniProt Q96KQ7 881-913, looked up)
chain: NKEGDTAWDLTEERSDVWFALQLNRKLRLGVGN
notes: as for B2
On to B4, for which the binding result in the test with full-length SUMO-CtBP2 is “binds”.

B5: SUMO-G9a (881–913)-FLAG (domain or fragment, human, UniProt Q96KQ7 881-913, looked up)
chain: NKEGDTAWDLTPERSDVWFALQLNRKLRLGVGN
notes: also called Pre-SET fragment; G9a Pre-SET domain; not shown: SUMO, N-terminal, kept; FLAG, C-terminal, kept
Take B5: the binding result with full-length SUMO-CtBP2, with CtBP2 (residues 31–364) and with full-length SUMO-CtBP1 was “binds” in each case.
